According to patent US20190309023A1 (MAINLINE BIOSCIENCES, published 2019):
Bridge positions count the residues as written; N and C are the ends. Square brackets hold non-standard residues; d marks the D form. * marks the point of attachment. 2Nal = N[C@@H](Cc1ccc2ccccc2c1)C(=O)O; Palmitoyl = CCCCCCCCCCCCCCCC(=O)*; Lauroyl = CCCCCCCCCCCC(=O)*; hCys = N[C@@H](CCS)C(=O)O; PhAc = O=C(Cc1ccccc1)*; Bz = O=C(c1ccccc1)*; Mpa = O=C(O)CCS; iPr = CC(C)*

Biological target: T1, Human chemokine receptor CXCR4 (human, UniProt P61073 1-352)
T1 construct: whole, on cells; Used as membranes (0.5 ug membrane protein) of Chem-1 cells that express the receptor; also called C-X-C chemokine receptor type 4; fusin
T1 sequence (P61073 whole entry): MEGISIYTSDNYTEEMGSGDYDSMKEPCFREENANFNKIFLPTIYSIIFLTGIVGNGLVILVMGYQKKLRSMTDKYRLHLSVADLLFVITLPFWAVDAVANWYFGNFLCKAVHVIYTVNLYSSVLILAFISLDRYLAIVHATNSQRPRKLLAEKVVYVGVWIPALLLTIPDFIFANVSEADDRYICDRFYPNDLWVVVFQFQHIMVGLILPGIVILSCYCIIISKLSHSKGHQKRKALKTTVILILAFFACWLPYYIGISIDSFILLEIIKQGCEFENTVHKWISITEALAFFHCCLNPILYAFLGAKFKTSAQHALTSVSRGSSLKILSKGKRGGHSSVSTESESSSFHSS
Assay: competition with [125I]SDF-1α, human CXCR4 membranes (Chem-1 cells)
Protocol: Human chemokine receptor CXCR4 expressed in Chem-1 cells were used in modified HEPES buffer pH 7.4. A 0.5 μg (Membrane protein may change from lot to lot, the concentration used were adjusted as necessary), aliquot was incubated with 0.03 nM [¹²⁵I]SDF-1α for 90 minutes at 25° C. Non-specific binding was estimated in the presence of 30 nM SDF-1α. Membranes were filtered and washed, filters were then counted to determine [¹²⁵I]SDF-1α specifically bound. Compounds were screened starting at 10 μM with 11-point dilutions (Valenzuela-Fernandez A, et al. J Biol Chem. 277(18):15677, 2002).

## Ac-CYK(iPr)[dR][2Nal]GCK(iPr)G-NH2 (linker 1-7 via 1,3‑bisbromomethyl benzene; also: acetate salt, Acetate salt) [MLB-033]
  Binding Kb: 0.99 nM
  IC50: 3.3 nM

B1: Benzoyl-cyclo[hCys-Tyr-Lys(iPr)-(D-Arg)-2Nal-Gly-Cys]-Lys(iPr)-Gly-NH(Et) (peptide)
peptide: Bz-[hCys]YK(iPr)[dR][2Nal]GCK(iPr)G-NHEt
modifications: disulfide 1-7; also: acetate salt
notes: Synthetic cyclic peptide, acetate salt; also called MLB-024
  Binding Kb: 0.39 nM
  IC50: 1.3 nM

B2: Cyclo[Mpa-Tyr-Lys(iPr)-(D-Arg)-2Nal-Gly-Cys]-Lys(iPr)-Gly-2Nal-Gly-NH2 (peptide)
peptide: [Mpa]YK(iPr)[dR][2Nal]GCK(iPr)G[2Nal]G-NH2
modifications: disulfide 1-7; also: acetate salt
notes: Synthetic cyclic peptide, acetate salt; also called MLB-008
  Binding Kb: 0.29 nM
  IC50: 0.95 nM

## Ac-CYK(iPr)[dR][2Nal]GCK(iPr)G-NH2 (linker 1-7 via 1,2‑bisbromomethyl benzene; also: acetate salt, Acetate salt) [MLB-032]
  Binding Kb: 0.12 nM
  IC50: 0.4 nM

B3: Ac-cyclo[hCys-Tyr-Lys(iPr)-(D-Arg)-2Nal-Gly-Cys]-Lys(iPr)-Gly-NH(Et) (peptide)
peptide: Ac-[hCys]YK(iPr)[dR][2Nal]GCK(iPr)G-NHEt
modifications: disulfide 1-7; also: acetate salt
notes: Synthetic cyclic peptide, acetate salt; also called MLB-026
  Binding Kb: 0.27 nM
  IC50: 0.89 nM

B4: Cyclo[Mpa-Tyr-Lys(iPr)-(D-Arg)-2Nal-Gly-Cys]-Lys(iPr)-Gly-NH(Et) (peptide)
peptide: [Mpa]YK(iPr)[dR][2Nal]GCK(iPr)G-NHEt
modifications: disulfide 1-7; also: acetate salt
notes: Synthetic cyclic peptide, acetate salt; also called MLB-014
  Binding Kb: 0.19 nM
  IC50: 0.64 nM

B5: Cyclo[Mpa-Tyr-Lys(iPr)-(D-Arg)-2Nal-Gly-Cys]-Lys(iPr)-Lys(Ac)-NH(Et) (peptide)
peptide: [Mpa]YK(iPr)[dR][2Nal]GCK(iPr)K(Ac)-NHEt
modifications: disulfide 1-7; also: acetate salt
notes: Synthetic cyclic peptide, acetate salt; also called MLB-027
  Binding Kb: 0.15 nM
  IC50: 0.48 nM

B6: Cyclo[Mpa-Tyr-Lys(iPr)-(D-Arg)-2Nal-Gly-Cys]-Lys(iPr)-Lys(lauroyl)-NH(Et) (peptide)
peptide: [Mpa]YK(iPr)[dR][2Nal]GCK(iPr)K(Lauroyl)-NHEt
modifications: disulfide 1-7; also: acetate salt
notes: Synthetic cyclic peptide, acetate salt; also called MLB-028
  Binding Kb: 2.5 nM
  IC50: 8.2 nM

B7: Cyclo[Mpa-Tyr-Lys(iPr)-(D-Arg)-2Nal-Gly-Cys]-Lys(iPr)-Lys(palmitoyl)-NH(Et) (peptide)
peptide: [Mpa]YK(iPr)[dR][2Nal]GCK(iPr)K(Palmitoyl)-NHEt
modifications: disulfide 1-7; also: acetate salt
notes: Synthetic cyclic peptide, acetate salt; also called MLB-029
  Binding Kb: 3.2 nM
  IC50: 11 nM

## Bz-CYK(iPr)[dR][2Nal]GCK(iPr)G-NH2 (linker 1-7 via 1,2‑bisbromomethyl benzene; also: acetate salt, Acetate salt) [MLB-030]
  Binding Kb: 0.39 nM
  IC50: 1.3 nM

B8: Benzoyl-cyclo[hCys-Tyr-Lys(iPr)-(D-Arg)-2Nal-Gly-Cys]-Lys(iPr)-Gly-NH2 (peptide)
peptide: Bz-[hCys]YK(iPr)[dR][2Nal]GCK(iPr)G-NH2
modifications: disulfide 1-7; also: acetate salt
notes: Synthetic cyclic peptide, acetate salt; also called MLB-021
  Binding Kb: 0.13 nM
  IC50: 0.42 nM

B9: Ac-cyclo[hCys-Tyr-Lys(iPr)-(D-Arg)-2Nal-Gly-Cys]-Lys(iPr)-Gly-NH2 (peptide)
peptide: Ac-[hCys]YK(iPr)[dR][2Nal]GCK(iPr)G-NH2
modifications: disulfide 1-7; also: acetate salt
notes: Synthetic cyclic peptide, acetate salt; also called MLB-010
  Binding Kb: 0.17 nM
  IC50: 0.56 nM

B10: Cyclo[Mpa-Tyr-Lys(iPr)-(D-Arg)-2Nal-Gly-Cys]-(D-Arg)-Gly-(D-Phe)-Gly-NH2 (peptide)
peptide: [Mpa]YK(iPr)[dR][2Nal]GC[dR]G[dF]G-NH2
modifications: disulfide 1-7; also: acetate salt
notes: Synthetic cyclic peptide, acetate salt; also called MLB-004
  Binding Kb: 0.21 nM
  IC50: 0.7 nM

B11: Benzoyl-cyclo[Cys-Tyr-Lys(iPr)-(D-Arg)-2Nal-Gly-Cys]-Lys(iPr)-Gly-NH2 (peptide)
peptide: Bz-CYK(iPr)[dR][2Nal]GCK(iPr)G-NH2
modifications: disulfide 1-7; also: acetate salt
notes: Synthetic cyclic peptide, acetate salt; also called MLB-023
  Binding Kb: 1 nM
  IC50: 3.4 nM

B12: Benzoyl-cyclo[Cys-Tyr-Lys(iPr)-(D-Arg)-2Nal-Gly-hCys]-Lys(iPr)-Gly-NH2 (peptide)
peptide: Bz-CYK(iPr)[dR][2Nal]G[hCys]K(iPr)G-NH2
modifications: disulfide 1-7; also: acetate salt
notes: Synthetic cyclic peptide, acetate salt; also called MLB-022
  Binding Kb: 0.21 nM
  IC50: 0.71 nM

B13: Cyclo[Mpa-Tyr-Lys(iPr)-(D-Arg)-2Nal-Gly-Cys]-Arg-Gly-(D-Phe)-Gly-NH2 (peptide)
peptide: [Mpa]YK(iPr)[dR][2Nal]GCRG[dF]G-NH2
modifications: disulfide 1-7; also: acetate salt
notes: Synthetic cyclic peptide, acetate salt; also called MLB-002
  Binding Kb: 0.28 nM
  IC50: 0.92 nM

B14: Cyclo[Mpa-Tyr-Arg-(D-Arg)-2Nal-Gly-Cys]-Arg-Gly-(D-Phe)-Gly-NH2 (peptide)
peptide: [Mpa]YR[dR][2Nal]GCRG[dF]G-NH2
modifications: disulfide 1-7; also: acetate salt
notes: Synthetic cyclic peptide, acetate salt; also called MLB-001
  Binding Kb: 7.3 nM
  IC50: 24 nM

B15: Cyclo[Mpa-Arg-Tyr-Arg-2Nal-Gly-Cys]-Arg-Gly-(D-Phe)-Gly-NH2 (peptide)
peptide: [Mpa]RYR[2Nal]GCRG[dF]G-NH2
modifications: disulfide 1-7; also: acetate salt
notes: Synthetic cyclic peptide, acetate salt; also called MLB-011
  Binding Kb: > 1000 nM

B16: Phenylacetyl-cyclo[hCys-Tyr-Lys(iPr)-(D-Arg)-2Nal-Gly-Cys]-Lys(iPr)-Gly-NH2 (peptide)
peptide: PhAc-[hCys]YK(iPr)[dR][2Nal]GCK(iPr)G-NH2
modifications: disulfide 1-7; also: acetate salt
notes: Synthetic cyclic peptide, acetate salt; also called MLB-025
  Binding Kb: 0.25 nM
  IC50: 0.84 nM
